Patent publication US20240376188A1 (UNIVERSITY OF NORTH CAROLINA AT CHAPEL HILL, published 2024)
Ends that are not written are not given here.

T1: acetylated peptide at residue K280 (276QIIN-K-Ac-KLDLSNVQSC) (human)
T1 construct: Coated at 1 ug/ml on 96-well plates; also called acetylated tau peptide
T1 peptide: QIINK(Ac)KLDLSNVQSC


Target: T1, acetylated peptide at residue K280 …
Test: peptide ELISA, peptide coated at 1 ug/ml, hybridoma supernatant diluted 1:10 to 1:2,500
Experimental: FIG. 13 includes an ELISA assay showing two K280 clones, 19B6 and 17G8, preferentially detect acetylated vs, non-acetylated tau peptides. Standard peptide ELISAs were performed with 1 μg/ml acetylated peptides at residue K280 (276QIIN-K-Ac-[…] (SEQ ID NO:17)) vs, non-acetylated peptides (276[…] (SEQ ID NO: 16)) and used to coat 96-well plates followed by washing with coating buffer (Phosphate Buffered Saline, pH 7.4) and incubated with serial dilutions of hybridoma supernatants (diluted from 1:10 to 1:2,500). Monoclonal antibodies were […] Horseradish peroxidase (HRP)-labeled secondary antibodies and colorimetric ELISAs were performed using a BMG/BioTek® multiplate reader at a standard absorbance setting of 450 nm with auto-mixing and blanking.

| binding result | Binder |
| --- | --- |
| binds | 19B6 (antibody, V domains shown, Used as hybridoma supernatant in the peptide ELISA; also called Ac-K280 clone 19B6) VH: EVQLQQSGAEFVRPGASVKLSCTVSGLNIEDDYIQWLKQRPEQGLEWIGWIDPENGDPKYASKFQGKATLTADTSSKIAYLHLSSLTSEDTAVYYCATRGLWGQGTTLTVSS VL: QIVLTQSPAIMSASLGERVTMTCTASSSVSSSYFHWYQQKPGSSPKLWIYSTSNLASGVPVRFSGSGSGTSYSLTISSMEAEDAATYYCHQYHRSPLTFGAGTKLELK |
| binds | 17G8 (antibody, V domains shown, Used as hybridoma supernatant in the peptide ELISA; also called Ac-K280 clone 17G8) VH: EVQLQQSGAEFVRPGASVKLSCTVSGLNIEDDYIQWLKQRPEQGLEWIGWIDPENGDPKYASKFQGKATLTADTSSKIAYLHLSSLTSEDTAVYYCATRGLWGQGTTLTVSS VL: QIVLTQSPAIMSASLGERVTMTCTASSSVSSSYFHWYQQKPGSSPKLWIYSTSNLASGVPVRFSGSGSGTSYSLTISSMEAEDAATYYCHQYHRSPLTFGAGTKLELK |
